Results taken from patent US11666658B2, “Rifamycin analogs and antibody-drug conjugates thereof” (Regeneron Pharmaceuticals, Inc., priority 2018, dated 2023).

T1: His9-hMSR1 (Homo sapiens, UniProt P21757)
T1 construct: human MSR1 extracellular domain expressed with a N-terminal nonahistidine tag; purchased R&D Systems 2708-MS
T1 sequence (P21757 77-451 limits assumed): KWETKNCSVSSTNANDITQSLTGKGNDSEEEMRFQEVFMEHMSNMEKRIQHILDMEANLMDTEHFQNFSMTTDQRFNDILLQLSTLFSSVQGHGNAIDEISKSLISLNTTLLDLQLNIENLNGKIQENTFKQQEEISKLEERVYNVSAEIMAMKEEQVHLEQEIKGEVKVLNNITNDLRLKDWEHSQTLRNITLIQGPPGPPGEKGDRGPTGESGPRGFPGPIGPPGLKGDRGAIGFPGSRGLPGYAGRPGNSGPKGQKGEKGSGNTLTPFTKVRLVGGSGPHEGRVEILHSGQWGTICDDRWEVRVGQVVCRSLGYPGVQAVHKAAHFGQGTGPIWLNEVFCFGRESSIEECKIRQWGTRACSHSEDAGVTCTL

T2: biot-AGE-BSA binding to His9-hMSR1 (Homo sapiens, UniProt P21757)
T2 construct: human MSR1 extracellular domain expressed with a N-terminal nonahistidine tag; purchased R&D Systems 2708-MS
T2 sequence (P21757 77-451 limits assumed): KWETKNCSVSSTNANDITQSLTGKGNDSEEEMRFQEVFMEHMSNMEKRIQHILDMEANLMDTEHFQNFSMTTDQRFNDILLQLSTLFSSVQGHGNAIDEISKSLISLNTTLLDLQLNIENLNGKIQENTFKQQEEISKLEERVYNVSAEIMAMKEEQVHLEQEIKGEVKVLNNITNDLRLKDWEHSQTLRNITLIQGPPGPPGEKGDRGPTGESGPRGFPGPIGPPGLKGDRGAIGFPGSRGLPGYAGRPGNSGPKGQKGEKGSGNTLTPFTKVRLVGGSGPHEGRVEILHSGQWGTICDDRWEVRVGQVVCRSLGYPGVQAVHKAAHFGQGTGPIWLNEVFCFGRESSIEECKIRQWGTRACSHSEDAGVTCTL

T3: Ox-LDL binding to His9-hMSR1 (Homo sapiens, UniProt P21757)
T3 construct: human MSR1 extracellular domain expressed with a N-terminal nonahistidine tag; purchased R&D Systems 2708-MS
T3 sequence (P21757 77-451 limits assumed): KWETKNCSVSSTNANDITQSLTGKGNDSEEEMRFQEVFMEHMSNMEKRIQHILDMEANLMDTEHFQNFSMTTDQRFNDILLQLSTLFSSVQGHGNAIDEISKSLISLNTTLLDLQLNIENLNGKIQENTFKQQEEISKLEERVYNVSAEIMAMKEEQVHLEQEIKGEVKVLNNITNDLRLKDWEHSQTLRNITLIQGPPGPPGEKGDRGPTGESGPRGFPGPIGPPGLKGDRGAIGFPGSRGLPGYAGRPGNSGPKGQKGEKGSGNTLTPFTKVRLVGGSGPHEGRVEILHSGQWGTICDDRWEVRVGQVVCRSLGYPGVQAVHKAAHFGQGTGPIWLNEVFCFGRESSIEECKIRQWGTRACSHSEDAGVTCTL

T4: Ac-LDL binding to His9-hMSR1 (Homo sapiens, UniProt P21757)
T4 construct: human MSR1 extracellular domain expressed with a N-terminal nonahistidine tag; purchased R&D Systems 2708-MS
T4 sequence (P21757 77-451 limits assumed): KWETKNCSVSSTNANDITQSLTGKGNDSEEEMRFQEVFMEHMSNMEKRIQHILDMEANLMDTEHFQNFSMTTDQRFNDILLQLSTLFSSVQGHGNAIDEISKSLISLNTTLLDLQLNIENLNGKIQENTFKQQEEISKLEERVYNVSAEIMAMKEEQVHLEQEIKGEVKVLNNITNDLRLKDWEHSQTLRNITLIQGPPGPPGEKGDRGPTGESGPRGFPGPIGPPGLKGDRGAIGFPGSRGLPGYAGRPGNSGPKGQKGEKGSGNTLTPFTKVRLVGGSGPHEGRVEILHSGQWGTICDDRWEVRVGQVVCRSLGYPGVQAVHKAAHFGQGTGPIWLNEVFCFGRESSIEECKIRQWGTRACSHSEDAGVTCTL

T5: MSR1-mediated DiI-OxLDL uptake in HEK293.Myc.hMSR1 cells (Homo sapiens, UniProt P21757)
T5 construct: expressed in transfected cells; host or cells: HEK293 (lentiviral transduction, hygromycin selection)
T5 sequence (P21757 1-451): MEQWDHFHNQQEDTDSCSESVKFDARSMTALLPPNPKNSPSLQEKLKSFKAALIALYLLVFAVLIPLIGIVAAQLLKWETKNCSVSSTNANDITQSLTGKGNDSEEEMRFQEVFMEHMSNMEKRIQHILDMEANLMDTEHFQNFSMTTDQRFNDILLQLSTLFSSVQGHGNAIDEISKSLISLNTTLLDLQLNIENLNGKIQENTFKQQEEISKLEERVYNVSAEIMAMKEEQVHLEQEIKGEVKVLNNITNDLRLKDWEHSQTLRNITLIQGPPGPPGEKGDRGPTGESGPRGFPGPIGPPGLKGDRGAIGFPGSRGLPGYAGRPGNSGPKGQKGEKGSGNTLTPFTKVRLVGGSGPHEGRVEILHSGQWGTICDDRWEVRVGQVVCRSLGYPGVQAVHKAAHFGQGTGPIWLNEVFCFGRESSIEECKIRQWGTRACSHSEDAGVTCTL


Tests used:
His9-hMSR1 = target: T1, His9-hMSR1; experiment: Cross-competition between anti-MSR1 antibodies (OCTET bio-layer interferometry); assay type: binding; details: label = first mAb (mAb-1) on His9-hMSR1 captured with anti-Penta-His Octet biosensors; value = competing mAb-2
Protocol: Binding competition between different anti-MSR1 antibodies was assessed using a real time, label-free bio-layer interferometry assay on an OCTET® HTX biosensor platform (Pall FortéBio Corp., Menlo Park, Calif.). The experiment was performed at 25° C. in 10 mM HEPES, 150 mM NaCl, 3 mM EDTA, 0.05% v/v Surfactant Tween-20, and 1 mg/mL BSA, pH 7.4 (HBS-EBT) buffer with the plate shaking at the speed of 1000 rpm.
To assess whether different antibodies are able to compete with one another for binding to their respective epitopes on the recombinant human MSR1 extracellular domain expressed with a N-terminal nonahistidine tag (SEQ ID NO: 688) (His9-hMSR1; R&D Systems, Cat #2708-MS), around […] of His9-hMSR1 was first captured onto anti-Penta-His antibody coated OCTET® biosensor tips (“Penta-His” disclosed as SEQ ID NO: 690) (Pall FortéBio Corp., #18-5122) by submerging the biosensor tips for 45 seconds into wells containing a […] solution of His9-hMSR1. The antigen-captured biosensor tips were then saturated with a first anti-MSR1 monoclonal antibody (subsequently referred to as “mAb-1”) by immersion into wells containing a […] solution of mAb-1 for 4 minutes. The biosensor tips were then submerged into wells containing a […] solution of a second anti-MSR1 monoclonal antibody (subsequently referred to as “mAb-2”) for 4 minutes. All of the biosensor tips were washed in HBS-EBT buffer in between each step of the experiment. The real-time binding response was monitored during the course of the experiment and the binding response at the end of each step was recorded. […] Table 17 explicitly defines the relationships of antibodies competing in both directions, independent of the order of binding.

[1] = target: T2, biot-AGE-BSA binding to His9-hMSR1; experiment: Competition sandwich ELISA, biot-AGE-BSA; details: anti-MSR1 antibody 300 nM, 400 pM biot-AGE-BSA
Protocol: (§1) The ability of anti-MSR1 antibodies disclosed herein to block the binding of various ligands to human MSR1 was measured using three competition sandwich ELISA assays. The ligands used in the assays were: (1) acetylated LDL (Ac-LDL), (2) oxidized LDL (Ox-LDL), and (3) advanced glycation end-products of bovine serum albumin (AGE-BSA).
For the assay, recombinant monomeric human MSR1 protein comprised of a portion of the human MSR1 extracellular domain expressed with a N-terminal 9-Histidine tag (SEQ ID NO: 688) (His9-hMSR1; R&D Systems, Cat #2708-MS) was coated at a concentration of […] in PBS on a 96-well microtiter plate overnight at 4° C. for use in competition ELISA assays with Ac-LDL, Ox-LDL, or biotinylated-AGE-BSA (“biot-AGE-BSA”). […] Anti-MSR1 antibodies or isotype control antibodies were serially diluted as appropriate for each tested ligand and added in duplicate for each serial dilution set to microtiter plates coated with His9-hMSR1. Buffer alone was also added to wells on each coat. After 1 hour incubation at room temperature, without wash, a final constant concentration of 50 pM Ac-LDL (Life Technologies/ThermoFisher Scientific, Cat #L-35354), 5 nM or 10 nM Ox-LDL (Alfa Aesar, Cat #J65591), or 400 pM biot-AGE-BSA (R&D Systems, Cat #BT4127) were added to plates with His9-hMSR1, and the plates were incubated for an additional 1 hour at room temperature. (Concentrations of Ac-LDL, Ox-LDL and biot-AGE-BSA for antibody inhibition assays were selected from the approximate midway point within the linear portion of individual binding curves of Ac-LDL, Ox-LDL or biot-AGE-BSA to plate-coated His9-hMSR1.) Wells were washed, and plate-bound Ac-LDL or Ox-LDL were detected with anti-LDL rabbit antibody (Alfa Aesar, Cat #J64398) in combination with anti-rabbit IgG (H+L) specific donkey polyclonal antibodies conjugated with horseradish peroxidase (HRP) (JacksonImmunoResearch, Cat #711-035-152) and biot-AGE-BSA was detected with a streptavidin-HRP (ThermoFisher Scientific, Cat #N200). Plates were developed using TMB substrate solution (BD Biosciences, Cat #51-2606KC & Cat #51-2607KC) according to manufacturer's recommendation and absorbance at 450 nm was measured on a Victor™ Multilabel Plate Reader (PerkinElmer™). This assay was conducted in four different assay runs.
(§2) Data analysis was performed using a sigmoidal dose-response model within Prism™ software (GraphPad). Percent blockade at maximum concentration of the antibody tested in each assay was calculated as an indicator of the ability of the antibodies to block the binding of Ac-LDL, Ox-LDL or biot-AGE-BSA to His9-hMSR1 on the plate relative to the baseline of the assay. In the calculation, binding signal of the same concentrations of Ac-LDL, Ox-LDL, or biot-AGE-BSA used for the assays in the absence of antibody was referenced as 100% binding or 0% blocking, while the baseline of the assay, defined as binding signal of the sample of buffer without MSR1 ligands or antibody, was referenced as 0% binding or 100% blocking. The maximum percent blockade at the highest concentration of antibody tested in each assay are reported for all antibodies. Negative percent blockade numbers reflected higher MSR1 ligands binding to plate coated His9-hMSR1 in the presence of antibodies.

[2] = target: T3, Ox-LDL binding to His9-hMSR1; experiment: Competition sandwich ELISA, Ox-LDL; details: anti-MSR1 antibody 500 nM, Ox-LDL 10 nM
Protocol: as §1
(§3) Anti-MSR1 antibodies or isotype control antibodies were serially diluted as appropriate for each tested ligand and added in duplicate for each serial dilution set to microtiter plates coated with His9-hMSR1. Buffer alone was also added to wells on each coat. […] This assay was conducted in four different assay runs.
as §2, with “antibodies.” for “antibodies. Negative percent blockade numbers reflected higher MSR1 ligands binding to plate coated His9-hMSR1 in the presence of antibodies.”

[3] = target: T4, Ac-LDL binding to His9-hMSR1; experiment: Competition sandwich ELISA, Ac-LDL; details: anti-MSR1 antibody 100 nM, 50 pM Ac-LDL
Protocol: as §1, §3
as §2, with “antibodies.” for “antibodies. Negative percent blockade numbers reflected higher MSR1 ligands binding to plate coated His9-hMSR1 in the presence of antibodies.”

[4] = target: T5, MSR1-mediated DiI-OxLDL uptake in HEK293.Myc.hMSR1 cells; experiment: Ligand uptake assay, DiI-OxLDL; assay type: cell-based
Protocol: The resulting cell line, referred to here as “HEK293.Myc.hMSR1”, was selected and maintained in DMEM containing 10% FBS, NEAA, penicillin/streptomycin, L-glutamine, and 100 μg/mL hygromycin.
After 30 minutes, either oxidized or acetylated low-density lipoprotein (LDL) labeled with 1,1′ dioctadecyl-3,3,3′,3′-tetramethylindocarbocyanine perchlorate (referred to as “DiI-OxLDL” or “DiI-AcLDL,” respectively) was added to the cells at a constant concentration of 10 μg/mL. […] Results were analyzed using nonlinear regression (4-parameter logistics) with the Prism 7 program to obtain EC50 and IC50 values. The percentage of inhibition was calculated with the Relative Fluorescent Unit (RFU) values by using the following equation: […]
In the equation, “RFUBaseline” is the fluorescence value from the cells treated with 10 μg/mL ligand without antibodies, “RFUInhibition” is the minimum fluorescence value with for a particular antibody with 10 μg/mL ligand, and “RFUBackground” is the fluorescence value from cells without any ligand or antibodies.

Row | mAb-2 antibodies which Compete with mAb-1 (His9-hMSR1) | % Blocking of biot-AGE-BSA binding to His9-hMSR1 [1] | % Blocking of Ox-LDL binding to His9-hMSR1 [2] | % Blocking of Ac-LDL binding to His9-hMSR1 [3] | inhibition of DiI-OxLDL uptake (in words) [4] | IC50, Dil-Oxidized LDL ([4]; 10 μg/mL DiI-OxLDL) | % Inhibition, Dil-Oxidized LDL ([4]; maximum inhibition of uptake, 10 μg/mL DiI-OxLDL) | Molecule
1 | Data Inconclusive** | 99% | 100% | 105% | – | – | – | H1H21227N: "Three anti-MSR1 antibodies ... (21227N, 21231N, 21234N) were produced with the original human Fcγ portion" (antibody, V domains shown) VH: QVQLVQSGAEVKKPGASVKVSCKVSGYTLTELSIHWVRQVPGKGLEWMGGFDPEEGETIFAQEFRDRVTLTEDTSPDTAYMELSSLKSEDAAVYYCTTPRYCNNGICYDYWGQGTLVTVSS VL: DIQMTQSPSSLSASVGDRVTITCRASQSISNYLNWYQQKPGKAPKLLIYTASSLQSGVPSRFSGSGSGTDFTLTISSLQTEDFATYYCQQSYSNFPITFGQGTRLEIKR
2 | Data Inconclusive** | – | – | – | no inhibition of DiI-OxLDL uptake | no inhibition | no inhibition | H1H27729P-N297Q: anti-MSR1 antibody; "Antibody H1H27729P-N297Q showed no inhibition of DiI-OxLDL uptake" (antibody, V domains shown) VH: QVQLVESGGGLVKPGGSLRLSCAASGFIFSDYYMSWIRQAPGKGLEWVSYISSSGTTIYGDSVKGRFTMSRDNAKNSLYLQMNSLRAEDTAVYYCARNYALFDYWGQGTLVTVSS VL: DIQMTQSPSSLSASVGDRVTITCQASQDISKYLNWYQQKPGKAPKLLIYYTSNLETGVPSRFSGSGSGTDFTFTISSLQPEDIATYYCHQSDYLPFTFGPGTKVDIKR
